{"source": "patent US20070015230A1", "about": "(AMERICAN NATIONAL RED CROSS, published 2007)", "biological_target": "T1, Human CRP (Novagen) (human, UniProt P02741 19-224)", "T1 construct": "also called C-reactive protein", "T1 sequence (looked up)": "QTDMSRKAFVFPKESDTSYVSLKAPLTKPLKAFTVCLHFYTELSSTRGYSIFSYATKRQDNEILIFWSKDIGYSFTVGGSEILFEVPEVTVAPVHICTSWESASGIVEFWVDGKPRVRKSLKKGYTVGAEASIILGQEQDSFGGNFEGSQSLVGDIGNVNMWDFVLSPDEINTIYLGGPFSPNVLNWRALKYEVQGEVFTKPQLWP", "experiment": "Bead Blot of library beads loaded from CRP-spiked whole blood, detected with an anti-CRP antibody, confirmed by re-incubation", "data": [{"binder": "GNQKWG (also called CRP ligand)", "values": [{"measurement": "binding result", "result": "binds"}]}]}
